The assay deals with HLA-DR DRB1*0701 on fixed MOU (MANN) cells (human). The assay can be described thus: competition.

“Tetanus toxin 828-840 (from UniProt P04958 828-840)” had an IC50 of 7 µM.

By IC50 is commonly meant the concentration needed to halve the response being measured. High values mean a need for much substance, low ones inhibition by little substance.

The record behind these values is patent US20060062761A1.
